B1: anti-CD3ε × anti-CD123 Wild Type (ID 33) (bispecific antibody)
light 1: not shown
heavy 1: not shown
heavy 2: EVQLQQSGPELVKPGASVKMSCKASGYTFTDYYMKWVKQSHGKSLEWIGDIIPSNGATFYNQKFKGKATLTVDRSSSTAYMHLNSLTSEDSAVYYCTRSHLLRASWFAYWGQGTLVTVSAASTKGPSVFPLAPSSKSTSGGTAALGCLVKDYFPEPVTVSWNSGALTSGVHTFPAVLQSSGLYSLSSVVTVPSSSLGTQTYICNVNHKPSNTKVDKKVEPKSCDKTHTCPPCPAPEAAGGPSVFLFPPKPKDTLMISRTPEVTCVVVDVSHEDPEVKFNWYVDGVEVHNAKTKPREEQYNSTYRVVSVLTVLHQDWLNGKEYKCKVSNKALPAPIEKTISKAKGQPREPQVCTLPPSRDELTKNQVSLSCAVKGFYPSDIAVEWESNGQPENNYKTTPPVLDSDGSFFLVSKLTVDKSRWQQGNVFSCSVMHEALHNRFTQKSLSLSPG
light 2: DFVMTQSPSSLTVTAGEKVTMSCKSSQSLLNSGNQKNYLTWYLQKPGQPPKLLIYWASTRESGVPDRFTGSGSGTDFTLTISSVQAEDLAVYYCQNDYSYPYTFGGGTKLEIKRTVAAPSVFIFPPSDEQLKSGTASVVCLLNNFYPREAKVQWKVDNALQSGNSQESVTEQDSKDSTYSLSSTLTLSKADYEKHKVYACEVTHQGLSSPVTKSFNRGEC
notes: Wild type bispecific IgG (first anti-CD3ε arm)
B2: anti-CD3ε × anti-CD123-dsTrasKO2 (ID 34) (bispecific antibody)
light 1: not shown
heavy 1: not shown
heavy 2: EVQLQQSGPELVKPGASVKMSCKASGYTFTDYYMKWVKQSHGKSLEWIGDIIPSNGATFYNQKFKGKATLTVDRSSSTAYMHLNSLTSEDSAVYYCTRSHLLRASWFAYWGQGTLVTVSAGGGGSGGGGSEVQLVESGGGLVQPGGSLRLSCAASGFNIKDTYIHWVRQAPGKCLEWVAEIYPTNGYTEYADSVKGRFTISADTSKNTAYLQMNSLRAEDTAVYYCSRWGGDGFYAMDYWGQGTLVTVSSDKTHTCPPCPAPEAAGGPSVFLFPPKPKDTLMISRTPEVTCVVVDVSHEDPEVKFNWYVDGVEVHNAKTKPREEQYNSTYRVVSVLTVLHQDWLNGKEYKCKVSNKALPAPIEKTISKAKGQPREPQVCTLPPSRDELTKNQVSLSCAVKGFYPSDIAVEWESNGQPENNYKTTPPVLDSDGSFFLVSKLTVDKSRWQQGNVFSCSVMHEALHNRFTQKSLSLSPG
light 2: not shown
B3: anti-CD3ε-dsTrasKO2 × anti-CD123 (ID 35) (bispecific antibody)
light 1: not shown
heavy 1: not shown
heavy 2: EVQLQQSGPELVKPGASVKMSCKASGYTFTDYYMKWVKQSHGKSLEWIGDIIPSNGATFYNQKFKGKATLTVDRSSSTAYMHLNSLTSEDSAVYYCTRSHLLRASWFAYWGQGTLVTVSAASTKGPSVFPLAPSSKSTSGGTAALGCLVKDYFPEPVTVSWNSGALTSGVHTFPAVLQSSGLYSLSSVVTVPSSSLGTQTYICNVNHKPSNTKVDKKVEPKSCDKTHTCPPCPAPEAAGGPSVFLFPPKPKDTLMISRTPEVTCVVVDVSHEDPEVKFNWYVDGVEVHNAKTKPREEQYNSTYRVVSVLTVLHQDWLNGKEYKCKVSNKALPAPIEKTISKAKGQPREPQVCTLPPSRDELTKNQVSLSCAVKGFYPSDIAVEWESNGQPENNYKTTPPVLDSDGSFFLVSKLTVDKSRWQQGNVFSCSVMHEALHNRFTQKSLSLSPG
light 2: DFVMTQSPSSLTVTAGEKVTMSCKSSQSLLNSGNQKNYLTWYLQKPGQPPKLLIYWASTRESGVPDRFTGSGSGTDFTLTISSVQAEDLAVYYCQNDYSYPYTFGGGTKLEIKRTVAAPSVFIFPPSDEQLKSGTASVVCLLNNFYPREAKVQWKVDNALQSGNSQESVTEQDSKDSTYSLSSTLTLSKADYEKHKVYACEVTHQGLSSPVTKSFNRGEC
notes: CD3ε arm is the pseudoFab (dsTrasKO2); also called anti-CD3E-dsTrasKO2 × anti-CD123
B4: anti-CD3ε × anti-CD123 Wild Type (ID 36, alternative anti-CD3ε binding domain) (bispecific antibody)
light 1: DIVMTQTPLSLSVTPGQPASISCKSSQSLVHENLQTYLSWYLQKPGQSPQSLIYKVSNRFSGVPDRFSGSGSGTDFTLKISRVEAEDVGVYYCGQGTQYPFTFGSGTKVEIKRTVAAPSVFIFPPSDEQLKSGTASVVCLLNNFYPREAKVQWKVDNALQSGNSQESVTEQDSKDSTYSLSSTLTLSKADYEKHKVYACEVTHQGLSSPVTKSFNRGEC
heavy 1: not shown
heavy 2: EVQLQQSGPELVKPGASVKMSCKASGYTFTDYYMKWVKQSHGKSLEWIGDIIPSNGATFYNQKFKGKATLTVDRSSSTAYMHLNSLTSEDSAVYYCTRSHLLRASWFAYWGQGTLVTVSAASTKGPSVFPLAPSSKSTSGGTAALGCLVKDYFPEPVTVSWNSGALTSGVHTFPAVLQSSGLYSLSSVVTVPSSSLGTQTYICNVNHKPSNTKVDKKVEPKSCDKTHTCPPCPAPEAAGGPSVFLFPPKPKDTLMISRTPEVTCVVVDVSHEDPEVKFNWYVDGVEVHNAKTKPREEQYNSTYRVVSVLTVLHQDWLNGKEYKCKVSNKALPAPIEKTISKAKGQPREPQVCTLPPSRDELTKNQVSLSCAVKGFYPSDIAVEWESNGQPENNYKTTPPVLDSDGSFFLVSKLTVDKSRWQQGNVFSCSVMHEALHNRFTQKSLSLSPG
light 2: DFVMTQSPSSLTVTAGEKVTMSCKSSQSLLNSGNQKNYLTWYLQKPGQPPKLLIYWASTRESGVPDRFTGSGSGTDFTLTISSVQAEDLAVYYCQNDYSYPYTFGGGTKLEIKRTVAAPSVFIFPPSDEQLKSGTASVVCLLNNFYPREAKVQWKVDNALQSGNSQESVTEQDSKDSTYSLSSTLTLSKADYEKHKVYACEVTHQGLSSPVTKSFNRGEC
B5: anti-CD3ε × anti-CD123-dsTrasKO2 (ID 37, alternative anti-CD3ε binding domain) (bispecific antibody)
light 1: DIVMTQTPLSLSVTPGQPASISCKSSQSLVHENLQTYLSWYLQKPGQSPQSLIYKVSNRFSGVPDRFSGSGSGTDFTLKISRVEAEDVGVYYCGQGTQYPFTFGSGTKVEIKRTVAAPSVFIFPPSDEQLKSGTASVVCLLNNFYPREAKVQWKVDNALQSGNSQESVTEQDSKDSTYSLSSTLTLSKADYEKHKVYACEVTHQGLSSPVTKSFNRGEC
heavy 1: not shown
heavy 2: EVQLQQSGPELVKPGASVKMSCKASGYTFTDYYMKWVKQSHGKSLEWIGDIIPSNGATFYNQKFKGKATLTVDRSSSTAYMHLNSLTSEDSAVYYCTRSHLLRASWFAYWGQGTLVTVSAGGGGSGGGGSEVQLVESGGGLVQPGGSLRLSCAASGFNIKDTYIHWVRQAPGKCLEWVAEIYPTNGYTEYADSVKGRFTISADTSKNTAYLQMNSLRAEDTAVYYCSRWGGDGFYAMDYWGQGTLVTVSSDKTHTCPPCPAPEAAGGPSVFLFPPKPKDTLMISRTPEVTCVVVDVSHEDPEVKFNWYVDGVEVHNAKTKPREEQYNSTYRVVSVLTVLHQDWLNGKEYKCKVSNKALPAPIEKTISKAKGQPREPQVCTLPPSRDELTKNQVSLSCAVKGFYPSDIAVEWESNGQPENNYKTTPPVLDSDGSFFLVSKLTVDKSRWQQGNVFSCSVMHEALHNRFTQKSLSLSPG
light 2: not shown
notes: also called anti-CD3ε × CD123-dsTrasKO2
B6: anti-TNP × anti-CD123 Negative control Wild Type (ID 42) (bispecific antibody)
light 1: DVVMTQSPLSLPVTLGQPASISCRSSQSLVHSIGNTYLHWYQQRPGQSPRLLIYKVSNRFSGVPDRFSGSGSGTDFTLKISRVEAEDVGVYYCSQSTHVPFTFGQGTKLEIKRTVAAPSVFIFPPSDEQLKSGTASVVCLLNNFYPREAKVQWKVDNALQSGNSQESVTEQDSKDSTYSLSSTLTLSKADYEKHKVYACEVTHQGLSSPVTKSFNRGEC
heavy 1: not shown
heavy 2: EVQLQQSGPELVKPGASVKMSCKASGYTFTDYYMKWVKQSHGKSLEWIGDIIPSNGATFYNQKFKGKATLTVDRSSSTAYMHLNSLTSEDSAVYYCTRSHLLRASWFAYWGQGTLVTVSAASTKGPSVFPLAPSSKSTSGGTAALGCLVKDYFPEPVTVSWNSGALTSGVHTFPAVLQSSGLYSLSSVVTVPSSSLGTQTYICNVNHKPSNTKVDKKVEPKSCDKTHTCPPCPAPEAAGGPSVFLFPPKPKDTLMISRTPEVTCVVVDVSHEDPEVKFNWYVDGVEVHNAKTKPREEQYNSTYRVVSVLTVLHQDWLNGKEYKCKVSNKALPAPIEKTISKAKGQPREPQVCTLPPSRDELTKNQVSLSCAVKGFYPSDIAVEWESNGQPENNYKTTPPVLDSDGSFFLVSKLTVDKSRWQQGNVFSCSVMHEALHNRFTQKSLSLSPG
light 2: DFVMTQSPSSLTVTAGEKVTMSCKSSQSLLNSGNQKNYLTWYLQKPGQPPKLLIYWASTRESGVPDRFTGSGSGTDFTLTISSVQAEDLAVYYCQNDYSYPYTFGGGTKLEIKRTVAAPSVFIFPPSDEQLKSGTASVVCLLNNFYPREAKVQWKVDNALQSGNSQESVTEQDSKDSTYSLSSTLTLSKADYEKHKVYACEVTHQGLSSPVTKSFNRGEC
B7: anti-TNP × anti-CD123-dsTrasKO2 Negative control (ID 43) (bispecific antibody, human IgG1, kappa, L234A L235A)
light 1: DVVMTQSPLSLPVTLGQPASISCRSSQSLVHSIGNTYLHWYQQRPGQSPRLLIYKVSNRFSGVPDRFSGSGSGTDFTLKISRVEAEDVGVYYCSQSTHVPFTFGQGTKLEIKRTVAAPSVFIFPPSDEQLKSGTASVVCLLNNFYPREAKVQWKVDNALQSGNSQESVTEQDSKDSTYSLSSTLTLSKADYEKHKVYACEVTHQGLSSPVTKSFNRGEC
heavy 1: not shown
heavy 2: EVQLQQSGPELVKPGASVKMSCKASGYTFTDYYMKWVKQSHGKSLEWIGDIIPSNGATFYNQKFKGKATLTVDRSSSTAYMHLNSLTSEDSAVYYCTRSHLLRASWFAYWGQGTLVTVSAGGGGSGGGGSEVQLVESGGGLVQPGGSLRLSCAASGFNIKDTYIHWVRQAPGKCLEWVAEIYPTNGYTEYADSVKGRFTISADTSKNTAYLQMNSLRAEDTAVYYCSRWGGDGFYAMDYWGQGTLVTVSSDKTHTCPPCPAPEAAGGPSVFLFPPKPKDTLMISRTPEVTCVVVDVSHEDPEVKFNWYVDGVEVHNAKTKPREEQYNSTYRVVSVLTVLHQDWLNGKEYKCKVSNKALPAPIEKTISKAKGQPREPQVCTLPPSRDELTKNQVSLSCAVKGFYPSDIAVEWESNGQPENNYKTTPPVLDSDGSFFLVSKLTVDKSRWQQGNVFSCSVMHEALHNRFTQKSLSLSPG
light 2: not shown

What follows are binders tested against T1, human CD123-Fc-His fusion protein (internal source) (human, UniProt P26951 19-305) (assay: SPR, Biacore 8K; CD123-Fc-His captured by anti-His, antibody as analyte, 1:1 Langmuir fit).
T1 construct: not shown: Fc and His tag
T1 sequence (looked up): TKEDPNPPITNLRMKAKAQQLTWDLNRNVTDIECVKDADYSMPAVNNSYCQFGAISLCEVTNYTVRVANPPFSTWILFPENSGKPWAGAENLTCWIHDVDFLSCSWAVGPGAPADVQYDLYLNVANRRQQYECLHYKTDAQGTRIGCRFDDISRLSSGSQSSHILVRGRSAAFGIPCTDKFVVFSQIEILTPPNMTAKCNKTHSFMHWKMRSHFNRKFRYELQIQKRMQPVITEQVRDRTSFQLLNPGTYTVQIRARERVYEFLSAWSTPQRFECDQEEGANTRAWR
Protocol: Binding of antigens to the antibody constructs was measured using surface plasmon resonance (SPR) with a BIAcore 8K instrument (GE Healthcare) with HBS-EP+ buffer (GE Healthcare). For binding kinetics and affinity determination human CD3εδ-Fc-His and human CD123-Fc-His fusion proteins (both from internal source) were used as antigens. The anti-His capture antibody (His capture kit, GE Life Sciences) was immobilized via primary amine groups (11000 RU) on a research grade CM5 chip (GE Life Sciences) using standard procedures. Antigens were captured by the anti-His capture chip surface at a flow rate of 10 μL/min for 90 sec to reach antibody binding levels between 10 and 30 RU. […] Dissociation was measured at 30 μL/min by injection of HBS-EP+ buffer for 1200 sec. The chip surface was regenerated by inject of regeneration buffer (His capture kit, GE Life Sciences). Sensorgrams were double referenced with a blank chip surface and H BS-EP+ buffer blanks. Data were fitted with a 1:1 Langmuir binding model for determination of kinetic and affinity constants ka, kd and KD using Biacore 8K Evaluation software v1.11.7442 (GE Healthcare).

B1 and B2 are within 1.5-fold of each other in Kd: 0.212 nM for the first, 0.239 nM for the second.

B3 and B4 are within 1.5-fold of each other in Kd: 0.257 nM for the first, 0.352 nM for the second.

Compared with B5, B6 is 1.7-fold lower in Kd: 0.386 nM for the first, 0.231 nM for the second.

With B7 the Kd was 0.546 nM.
